Experimental data taken from US20240309103A1 (Regeneron, published 2024).

What was measured:
[1] = target: T1, human NPR1 on HEK293/hNPR1.myc.DDK cells (0 hANP) (human, UniProt P16066 33-1061); assay: cell-based or functional assay
T1 sequence: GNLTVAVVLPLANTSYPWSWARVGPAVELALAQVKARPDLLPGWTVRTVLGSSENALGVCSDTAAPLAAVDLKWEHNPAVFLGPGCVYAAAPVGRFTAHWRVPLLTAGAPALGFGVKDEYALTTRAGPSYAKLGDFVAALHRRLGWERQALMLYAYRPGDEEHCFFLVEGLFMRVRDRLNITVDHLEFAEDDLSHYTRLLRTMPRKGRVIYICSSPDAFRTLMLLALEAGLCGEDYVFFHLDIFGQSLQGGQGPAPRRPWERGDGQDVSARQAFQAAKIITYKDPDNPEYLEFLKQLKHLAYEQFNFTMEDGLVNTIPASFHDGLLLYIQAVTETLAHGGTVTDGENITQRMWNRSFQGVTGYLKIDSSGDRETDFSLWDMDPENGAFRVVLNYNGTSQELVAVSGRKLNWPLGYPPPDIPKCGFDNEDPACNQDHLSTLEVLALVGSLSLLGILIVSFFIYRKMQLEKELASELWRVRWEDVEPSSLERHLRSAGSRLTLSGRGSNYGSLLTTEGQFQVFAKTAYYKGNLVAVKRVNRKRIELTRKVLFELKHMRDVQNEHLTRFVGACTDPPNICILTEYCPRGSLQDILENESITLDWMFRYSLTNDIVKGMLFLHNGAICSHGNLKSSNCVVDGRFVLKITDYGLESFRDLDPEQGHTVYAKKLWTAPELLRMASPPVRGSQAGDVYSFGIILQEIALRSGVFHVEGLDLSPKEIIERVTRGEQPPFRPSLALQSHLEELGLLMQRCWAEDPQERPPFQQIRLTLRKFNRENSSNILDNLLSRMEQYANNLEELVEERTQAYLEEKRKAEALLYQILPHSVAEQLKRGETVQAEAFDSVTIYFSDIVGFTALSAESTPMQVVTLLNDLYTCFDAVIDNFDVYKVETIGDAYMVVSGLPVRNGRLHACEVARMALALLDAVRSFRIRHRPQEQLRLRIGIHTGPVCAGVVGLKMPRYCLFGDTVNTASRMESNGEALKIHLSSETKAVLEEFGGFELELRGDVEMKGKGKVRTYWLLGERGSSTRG

[2] = target: T1, human NPR1 on HEK293/hNPR1.myc.DDK …; assay: ECL cell binding (MSD), HEK293/hNPR1.myc.DDK cells, 0 hANP
Experimental: (§1) Experiments were carried out according to the following procedure. Cells from lines described above were rinsed once in 1×PBS buffer without Ca²⁺/Mg²⁺ nd incubated for 10 minutes at 37° C. with Enzyme Free Cell Dissociation Solution to detach cells from a flask. All cells were washed once with 1×PBS with Ca²⁺/Mg²⁺ and counted with a Cellometer™ Auto T4 cell counter (Nexcelom Bioscience). Approximately 2.0×10⁴ HEK293/hNPR1.myc.DDK or HEK293 cells were seeded separately onto 96-well carbon electrode plates (MULTI-ARRAY high bind plate, Meso Scale Discovery (MSD, Rockville, MD)) and incubated for 1 hour (h) at 37° C. Nonspecific binding sites were blocked by 2% BSA (w/v) in 1×PBS with Ca²⁺/Mg²⁺for 1 h at room temperature (RT). HEK293/hNPR1.myc. […] The plate-bound antibodies were detected with SULFO-TAG™-conjugated goat polyclonal anti-human IgG antibody specific for heavy and light chains (Jackson Immunoresearch, West Grove, PA) for 1 h, RT.
(§2) After washes, plates were developed with Read Buffer (MSD, Rockville, MD) according to manufacturer's recommended procedure and luminescent signals were recorded with a SECTOR Imager 600 (MSD, Rockville, MD). Luminescence intensity, measured in relative light units (RLU), was recorded to indicate the binding intensity of each antibody at the range of concentrations.

[3] = target: T1, human NPR1 on HEK293/hNPR1.myc.DDK …; assay: ECL cell binding (MSD), 0 hANP
Experimental: as §1, with “All” for “Experiments were carried out according to the following procedure. Cells from lines described above were rinsed once in 1×PBS buffer without Ca²⁺/Mg²⁺ nd incubated for 10 minutes at 37° C. with Enzyme Free Cell Dissociation Solution to detach cells from a flask. All”
as §2
(§3) In addition, direct binding signals (RLU) were analyzed as a function of the antibody concentration and data were fitted with a sigmoidal (four-parameter logistic) dose-response model using R statistical package (open source).

[4] = target: T2, human NPR1 on HEK293/hNPR1.myc.DDK cells with 10 nM hANP (NPR1-ANP complex) (human, UniProt P01160 124-151); assay: ECL cell binding (MSD), +10 nM hANP
T2 construct: also called NPR1-ANP Complex on the Cell Surface
T2 sequence: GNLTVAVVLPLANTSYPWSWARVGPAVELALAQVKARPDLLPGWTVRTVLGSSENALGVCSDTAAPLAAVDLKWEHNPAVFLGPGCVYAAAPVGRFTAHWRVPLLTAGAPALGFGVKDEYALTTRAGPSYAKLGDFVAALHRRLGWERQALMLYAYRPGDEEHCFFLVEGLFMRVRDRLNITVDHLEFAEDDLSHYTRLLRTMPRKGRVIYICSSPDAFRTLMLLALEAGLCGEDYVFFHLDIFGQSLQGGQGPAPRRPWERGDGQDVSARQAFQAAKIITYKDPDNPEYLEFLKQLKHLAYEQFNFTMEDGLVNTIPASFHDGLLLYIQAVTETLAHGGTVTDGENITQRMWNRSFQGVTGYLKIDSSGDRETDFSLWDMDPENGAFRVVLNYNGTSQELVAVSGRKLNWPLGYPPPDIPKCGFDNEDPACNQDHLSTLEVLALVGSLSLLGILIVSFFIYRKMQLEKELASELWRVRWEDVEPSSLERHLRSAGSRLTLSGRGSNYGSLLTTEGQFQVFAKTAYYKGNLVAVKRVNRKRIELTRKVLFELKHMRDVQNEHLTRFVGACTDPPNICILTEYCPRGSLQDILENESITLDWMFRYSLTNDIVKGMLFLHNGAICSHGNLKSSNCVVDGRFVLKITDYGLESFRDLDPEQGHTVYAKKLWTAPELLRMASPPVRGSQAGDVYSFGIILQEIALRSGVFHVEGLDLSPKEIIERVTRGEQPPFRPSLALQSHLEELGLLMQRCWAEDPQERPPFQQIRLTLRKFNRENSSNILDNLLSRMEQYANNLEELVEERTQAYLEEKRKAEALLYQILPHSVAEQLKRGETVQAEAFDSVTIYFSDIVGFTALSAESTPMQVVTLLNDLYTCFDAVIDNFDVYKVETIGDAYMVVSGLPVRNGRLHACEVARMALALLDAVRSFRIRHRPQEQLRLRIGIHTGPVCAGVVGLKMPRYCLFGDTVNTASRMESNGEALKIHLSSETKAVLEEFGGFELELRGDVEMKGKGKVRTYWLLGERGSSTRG
T2 sequence (peptide): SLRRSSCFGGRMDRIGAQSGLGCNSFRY
Experimental: as §1, with “All” for “Experiments were carried out according to the following procedure. Cells from lines described above were rinsed once in 1×PBS buffer without Ca²⁺/Mg²⁺ nd incubated for 10 minutes at 37° C. with Enzyme Free Cell Dissociation Solution to detach cells from a flask. All”
as §2, §3

B1: mAb22810 (antibody, human IgG4, V domains shown)
VH: EVQLVESGGGLVKPGGSLRLSCVVSGFTFRIYTMNWVRQAPGKGLEWVASISSSSSFINYADSLKGRFTISRDNAQNSLYLQMNSLRAEDTAIYYCARAAGNDVLPGRMDVWGQGTSVTVSS
VL: EIVLTQSPGTLSLSPGERATLSCRASQSVSSNYLAWYQQKPGQVPSLLIYGASSRATGIPDRFSGSGSGTDFTLTITRLEPEDFAVYYCQQYGISPWTFGQGTKVEIK
In the case of B1, the “% Activation (vs. ANP max), Expt II” value [1] is reported as 126%, the “EC50 (nM), calcium flux, Expt II” value [1] is reported as 50.8 nM and the binding result [2] is reported as “no binding (tested: ratio below 3 at 3.7 nM Ab)”. For the same binder, the “Ratio at 3.7 nM Ab concentration of Cell Binding Signal (RLU) to HEK293/hNPR1.myc.DKK relative to parental HEK293” value [3] was 1 ratio, the EC50 [4] was 3.7 nM and the “Ratio at 3.7 nM Ab concentration of Cell Binding Signal (RLU) to HEK293/hNPR1.myc.DKK relative to parental HEK293” value [4] was 24 ratio.
